Data reported in PMC3934934, “The Self-Interaction of a Nodavirus Replicase Is Enhanced by Mitochondrial Membrane Lipids” (PLoS ONE, 2014).

Tests used:
Details in all cases: one partner purified
[1] = target: T1, MBP-protA fragment aa 1–480 (Wuhan nodavirus (WhNV), UniProt Q3KSM3 1-480); assay: pull-down; MBP fusion protein (1 µM) held on amylose resin, His-tagged protein (1 µM) in vitro translated in rabbit reticulocyte lysate; room temperature, 4 hrs; no lipids; Western blot with anti-His; signals given as % of FL to FL protein A self-interaction
T1 construct: also called 1–480 MBP/protA; source: E. coli strain TB1, purified (amylose resin); not shown: MBP, N-terminal, kept
T1 sequence: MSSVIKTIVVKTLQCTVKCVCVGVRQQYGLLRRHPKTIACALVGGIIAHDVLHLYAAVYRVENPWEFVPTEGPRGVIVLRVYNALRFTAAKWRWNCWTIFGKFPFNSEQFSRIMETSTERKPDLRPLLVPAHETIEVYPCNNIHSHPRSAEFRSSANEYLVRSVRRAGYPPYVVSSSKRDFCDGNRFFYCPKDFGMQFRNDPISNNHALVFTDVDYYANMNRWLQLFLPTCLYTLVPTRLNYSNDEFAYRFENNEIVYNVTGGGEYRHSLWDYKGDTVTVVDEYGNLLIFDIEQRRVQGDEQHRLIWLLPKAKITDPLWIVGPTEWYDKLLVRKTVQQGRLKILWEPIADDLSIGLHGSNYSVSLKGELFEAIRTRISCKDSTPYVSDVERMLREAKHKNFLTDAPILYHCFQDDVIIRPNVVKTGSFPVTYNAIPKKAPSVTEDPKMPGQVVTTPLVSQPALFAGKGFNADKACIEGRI

[2] = target: T2, MBP-protA fragment aa 1–254 (Wuhan nodavirus (WhNV), UniProt Q3KSM3 1-254); assay: as above
T2 construct: also called 1–254 MBP/protA; source: E. coli strain TB1, purified (amylose resin); not shown: MBP, N-terminal, kept
T2 sequence: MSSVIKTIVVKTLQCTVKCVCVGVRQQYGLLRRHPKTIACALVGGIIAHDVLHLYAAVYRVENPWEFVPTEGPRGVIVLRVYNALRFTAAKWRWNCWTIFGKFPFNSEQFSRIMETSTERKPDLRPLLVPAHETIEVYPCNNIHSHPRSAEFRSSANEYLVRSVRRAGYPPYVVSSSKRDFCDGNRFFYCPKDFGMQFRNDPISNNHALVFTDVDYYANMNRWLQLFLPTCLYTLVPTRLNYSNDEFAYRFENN

[3] = target: T3, MBP-tagged full-length (FL) WhNV protein A (Wuhan nodavirus (WhNV), UniProt Q3KSM3 1-1014); assay: pull-down
T3 construct: also called MBP-protA; 1–1014 MBP/protA; source: E. coli strain TB1, purified (amylose resin); not shown: MBP, N-terminal, kept
T3 sequence: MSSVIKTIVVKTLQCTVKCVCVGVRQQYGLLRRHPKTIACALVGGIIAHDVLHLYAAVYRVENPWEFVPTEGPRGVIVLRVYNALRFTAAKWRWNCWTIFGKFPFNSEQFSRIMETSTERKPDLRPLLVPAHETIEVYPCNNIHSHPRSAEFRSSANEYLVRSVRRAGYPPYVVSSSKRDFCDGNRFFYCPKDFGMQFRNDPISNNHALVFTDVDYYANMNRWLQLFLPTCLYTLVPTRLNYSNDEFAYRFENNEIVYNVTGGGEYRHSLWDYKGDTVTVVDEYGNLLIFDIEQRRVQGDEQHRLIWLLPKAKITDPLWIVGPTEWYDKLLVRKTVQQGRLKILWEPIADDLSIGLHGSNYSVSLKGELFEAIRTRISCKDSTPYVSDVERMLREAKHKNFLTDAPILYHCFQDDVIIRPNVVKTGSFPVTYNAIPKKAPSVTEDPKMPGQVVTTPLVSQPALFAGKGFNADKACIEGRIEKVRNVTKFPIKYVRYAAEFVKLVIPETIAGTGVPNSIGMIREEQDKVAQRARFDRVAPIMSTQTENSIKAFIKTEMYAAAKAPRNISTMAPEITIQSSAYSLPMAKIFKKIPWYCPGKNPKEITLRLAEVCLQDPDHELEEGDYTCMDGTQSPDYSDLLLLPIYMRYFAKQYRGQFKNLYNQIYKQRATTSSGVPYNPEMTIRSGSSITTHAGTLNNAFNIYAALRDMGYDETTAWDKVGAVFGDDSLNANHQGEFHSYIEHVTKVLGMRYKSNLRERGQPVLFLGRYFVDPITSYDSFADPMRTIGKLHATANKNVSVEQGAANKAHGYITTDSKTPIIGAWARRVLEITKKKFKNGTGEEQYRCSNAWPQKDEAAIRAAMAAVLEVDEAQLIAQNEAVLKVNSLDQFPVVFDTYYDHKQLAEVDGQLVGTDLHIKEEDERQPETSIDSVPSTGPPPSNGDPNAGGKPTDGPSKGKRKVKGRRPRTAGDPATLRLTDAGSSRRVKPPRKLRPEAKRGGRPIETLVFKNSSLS

B1: His-tagged WhNV protein A, in vitro translated (natural protein)
chain: MSSVIKTIVVKTLQCTVKCVCVGVRQQYGLLRRHPKTIACALVGGIIAHDVLHLYAAVYRVENPWEFVPTEGPRGVIVLRVYNALRFTAAKWRWNCWTIFGKFPFNSEQFSRIMETSTERKPDLRPLLVPAHETIEVYPCNNIHSHPRSAEFRSSANEYLVRSVRRAGYPPYVVSSSKRDFCDGNRFFYCPKDFGMQFRNDPISNNHALVFTDVDYYANMNRWLQLFLPTCLYTLVPTRLNYSNDEFAYRFENNEIVYNVTGGGEYRHSLWDYKGDTVTVVDEYGNLLIFDIEQRRVQGDEQHRLIWLLPKAKITDPLWIVGPTEWYDKLLVRKTVQQGRLKILWEPIADDLSIGLHGSNYSVSLKGELFEAIRTRISCKDSTPYVSDVERMLREAKHKNFLTDAPILYHCFQDDVIIRPNVVKTGSFPVTYNAIPKKAPSVTEDPKMPGQVVTTPLVSQPALFAGKGFNADKACIEGRIEKVRNVTKFPIKYVRYAAEFVKLVIPETIAGTGVPNSIGMIREEQDKVAQRARFDRVAPIMSTQTENSIKAFIKTEMYAAAKAPRNISTMAPEITIQSSAYSLPMAKIFKKIPWYCPGKNPKEITLRLAEVCLQDPDHELEEGDYTCMDGTQSPDYSDLLLLPIYMRYFAKQYRGQFKNLYNQIYKQRATTSSGVPYNPEMTIRSGSSITTHAGTLNNAFNIYAALRDMGYDETTAWDKVGAVFGDDSLNANHQGEFHSYIEHVTKVLGMRYKSNLRERGQPVLFLGRYFVDPITSYDSFADPMRTIGKLHATANKNVSVEQGAANKAHGYITTDSKTPIIGAWARRVLEITKKKFKNGTGEEQYRCSNAWPQKDEAAIRAAMAAVLEVDEAQLIAQNEAVLKVNSLDQFPVVFDTYYDHKQLAEVDGQLVGTDLHIKEEDERQPETSIDSVPSTGPPPSNGDPNAGGKPTDGPSKGKRKVKGRRPRTAGDPATLRLTDAGSSRRVKPPRKLRPEAKRGGRPIETLVFKNSSLS
notes: also called His-protA; FL His-protA; source: in vitro translated in nuclease-treated rabbit reticulocyte lysates
[1]
  self-interaction efficiency, % of FL to FL protein A self-interaction: 94%
[2]
  self-interaction efficiency, % of FL to FL protein A self-interaction: 67%
[3]
  fold of the self-interaction without MMLs, at 1 µg/µl MMLs: ~4.6 fold
  fold of the self-interaction without MMLs, at 2 µg/µl MMLs: ~9 fold
  fold of the self-interaction without MMLs, at 5 µg/µl MMLs: ~12 fold
